Among the data in the supplement of paper PMC10567573 are protein stability index values, retold here.

B1: KCNK9 (parent)
chain: CFITLTTIGFGDYVALQTKGALQK
B2: RTP4 (parent)
chain: TYWEHWTSQGQVRMRLFGQRCQKC
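Note: lentivirally expressed fusions sorted by FACS into six bins by GFP to DsRed ratio, PSI derived from sequencing read proportions per bin multiplied by bin number.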

The variants in the first data set derive from B1. As to the kind of experiment: protein stability index of a GFP-peptide fusion (GPS, HEK-293T) (PSI 1-6); higher = more stable. The settings on record: c terminus: a fixed tail appended.
In the case of CFIGLTTIGFGDYVALQTKGALQK [T4G], the protein stability index is 2.63. Turning to CFIELTTIGFGDYVALQTKGALQK [T4E], the protein stability index was 2.07. Turning to CFIKLTTIGFGDYVALQTKGALQK [T4K], the protein stability index was 3.64.

With CFIILTTIGFGDYVALQTKGALQK [T4I], the protein stability index came out at 1.52.

Take CFIALTTIGFGDYVALQTKGALQK [T4A]: the protein stability index is 2.99. Take CFIFLTTIGFGDYVALQTKGALQK [T4F]: the protein stability index is 2.95. CFIDLTTIGFGDYVALQTKGALQK [T4D]: the protein stability index stood at 2.54. CFIHLTTIGFGDYVALQTKGALQK [T4H]: the protein stability index came out at 2.23. The same measure, in the same setting: for CFICLTTIGFGDYVALQTKGALQK [T4C] the value was 3.91; for CFIMLTTIGFGDYVALQTKGALQK [T4M], 3.53; for CFDTLTTIGFGDYVALQTKGALQK [I3D], 2.82.

CFWTLTTIGFGDYVALQTKGALQK [I3W]: the protein stability index is 2.2. The same measure, in the same setting: for CFPTLTTIGFGDYVALQTKGALQK [I3P] the value was 2.68; for CFKTLTTIGFGDYVALQTKGALQK [I3K], 2.06.

Consider CFSTLTTIGFGDYVALQTKGALQK [I3S], for which the protein stability index came to 2.11.

On to CFHTLTTIGFGDYVALQTKGALQK [I3H], for which the protein stability index turned out to be 1.82. Still for that read-out and setting: for CFQTLTTIGFGDYVALQTKGALQK [I3Q] the value was 2.13; for CFETLTTIGFGDYVALQTKGALQK [I3E], 2.03. On to CFCTLTTIGFGDYVALQTKGALQK [I3C], for which the protein stability index was 2.68.

Turning to CFRTLTTIGFGDYVALQTKGALQK [I3R], the protein stability index was determined as 1.78. With CFYTLTTIGFGDYVALQTKGALQK [I3Y], the protein stability index was determined as 2.82. For CFGTLTTIGFGDYVALQTKGALQK [I3G], the protein stability index is 1.68. Turning to CFATLTTIGFGDYVALQTKGALQK [I3A], the protein stability index came out at 2.03. With CFTTLTTIGFGDYVALQTKGALQK [I3T], the protein stability index was 1.87. For CFMTLTTIGFGDYVALQTKGALQK [I3M], the protein stability index amounted to 2.05. As for CFFTLTTIGFGDYVALQTKGALQK [I3F], the protein stability index amounted to 1.52. The same measure, in the same setting: the figure for CFLTLTTIGFGDYVALQTKGALQK [I3L] is 2.05. In the case of CFNTLTTIGFGDYVALQTKGALQK [I3N], the protein stability index was 1.86. In the case of LFITLTTIGFGDYVALQTKGALQK [C1L], the protein stability index was 4.01.

For the variant QFITLTTIGFGDYVALQTKGALQK [C1Q], the protein stability index was 2.53. Same read-out and setting: the figure for TFITLTTIGFGDYVALQTKGALQK [C1T] is 3.37; for SFITLTTIGFGDYVALQTKGALQK [C1S] it is 2.4.

HFITLTTIGFGDYVALQTKGALQK [C1H]: the protein stability index was 3.02. Same read-out and setting: for RFITLTTIGFGDYVALQTKGALQK [C1R] the value was 2.57; for KFITLTTIGFGDYVALQTKGALQK [C1K], 2.05. Take IFITLTTIGFGDYVALQTKGALQK [C1I]: the protein stability index was determined as 3.52.

Take PFITLTTIGFGDYVALQTKGALQK [C1P]: the protein stability index was found to be 1.66. With AFITLTTIGFGDYVALQTKGALQK [C1A], the protein stability index turned out to be 2.27.

Turning to NFITLTTIGFGDYVALQTKGALQK [C1N], the protein stability index was 2.2. Regarding WFITLTTIGFGDYVALQTKGALQK [C1W], the protein stability index turned out to be 3.09. Regarding GFITLTTIGFGDYVALQTKGALQK [C1G], the protein stability index worked out at 1.26. The same measure, in the same setting: the figure for DFITLTTIGFGDYVALQTKGALQK [C1D] is 1.57. On to EFITLTTIGFGDYVALQTKGALQK [C1E], for which the protein stability index stood at 2.02. As for MFITLTTIGFGDYVALQTKGALQK [C1M], the protein stability index amounted to 3.33. On the same count and under the same terms, the figure for CYITLTTIGFGDYVALQTKGALQK [F2Y] is 1.79; for CTITLTTIGFGDYVALQTKGALQK [F2T] it is 2.04; for CMITLTTIGFGDYVALQTKGALQK [F2M] it is 1.43. On the same count and under the same terms, the figure for CKITLTTIGFGDYVALQTKGALQK [F2K] is 2.4; for CVITLTTIGFGDYVALQTKGALQK [F2V] it is 2.51. Take CLITLTTIGFGDYVALQTKGALQK [F2L]: the protein stability index was 3.17. Same read-out and setting: the figure for CHITLTTIGFGDYVALQTKGALQK [F2H] is 2.03. Still for that read-out and setting: for CIITLTTIGFGDYVALQTKGALQK [F2I] the value was 2.62; for CRITLTTIGFGDYVALQTKGALQK [F2R], 2.18; for CGITLTTIGFGDYVALQTKGALQK [F2G], 2.02.

On to CNITLTTIGFGDYVALQTKGALQK [F2N], for which the protein stability index turned out to be 1.61.

As for CPITLTTIGFGDYVALQTKGALQK [F2P], the protein stability index was 2.5. For the variant CAITLTTIGFGDYVALQTKGALQK [F2A], the protein stability index is 1.82.

CEITLTTIGFGDYVALQTKGALQK [F2E]: the protein stability index amounted to 1.02. As for CSITLTTIGFGDYVALQTKGALQK [F2S], the protein stability index turned out to be 2.72.

As to CQITLTTIGFGDYVALQTKGALQK [F2Q], the protein stability index amounted to 1.82.

Consider CDITLTTIGFGDYVALQTKGALQK [F2D], for which the protein stability index was determined as 1.99. As to CCITLTTIGFGDYVALQTKGALQK [F2C], the protein stability index is 2.23.

Variants of B2 are the subject of the next data set. Described as above. The note with it: c terminus: a fixed tail appended.
Take TYWEHWTSQGQVRMRLFGQRCQSC [K23S]: the protein stability index was found to be 1.48. On to TYWEHWTSQGQVRMRLFGQRCQEC [K23E], for which the protein stability index was 1.79. With TYWEHWTSQGQVRMRLFGQRCQDC [K23D], the protein stability index was 1.79. Take TYWEHWTSQGQVRMRLFGQRCQCC [K23C]: the protein stability index was 1.63. TYWEHWTSQGQVRMRLFGQRCQGC [K23G]: the protein stability index came to 1.15. For TYWEHWTSQGQVRMRLFGQRCQPC [K23P], the protein stability index was 1.65. TYWEHWTSQGQVRMRLFGQRCQAC [K23A]: the protein stability index was determined as 2.52. As for TYWEHWTSQGQVRMRLFGQRCQQC [K23Q], the protein stability index is 1.92.

As for TYWEHWTSQGQVRMRLFGQRCQTC [K23T], the protein stability index came out at 1.07. Same read-out and setting: the figure for TYWEHWTSQGQVRMRLFGQRCQYC [K23Y] is 1.67; for TYWEHWTSQGQVRMRLFGQRCQRC [K23R] it is 1.4.

Take TYWEHWTSQGQVRMRLFGQRCQHC [K23H]: the protein stability index turned out to be 1.1. As for TYWEHWTSQGQVRMRLFGQRCQKA [C24A], the protein stability index stood at 2.31. For the variant TYWEHWTSQGQVRMRLFGQRCQKE [C24E], the protein stability index was 2.34. As to TYWEHWTSQGQVRMRLFGQRCQKV [C24V], the protein stability index was determined as 2.03. Regarding TYWEHWTSQGQVRMRLFGQRCQKP [C24P], the protein stability index was 1.69. Consider TYWEHWTSQGQVRMRLFGQRCQKF [C24F], for which the protein stability index worked out at 2.78. As to TYWEHWTSQGQVRMRLFGQRCQKW [C24W], the protein stability index turned out to be 1.54. In the case of TYWEHWTSQGQVRMRLFGQRCQKG [C24G], the protein stability index amounted to 2.2. In the case of TYWEHWTSQGQVRMRLFGQRCQKQ [C24Q], the protein stability index was determined as 2.28. Turning to TYWEHWTSQGQVRMRLFGQRCQKM [C24M], the protein stability index came out at 2.29. For TYWEHWTSQGQVRMRLFGQRCQKY [C24Y], the protein stability index stood at 2.15.

In the case of TYWEHWTSQGQVRMRLFGQRCQKD [C24D], the protein stability index is 2.53. As for TYWEHWTSQGQVRMRLFGQRCQKT [C24T], the protein stability index was 2.41. Consider TYWEHWTSQGQVRMRLFGQRCQKR [C24R], for which the protein stability index came to 2.29. TYWEHWTSQGQVRMRLFGQRCQKH [C24H]: the protein stability index is 2.07. On the same count and under the same terms, the figure for TYWEHWTSQGQVRMRLFGQRCQKN [C24N] is 2.22.

For the variant TYWEHWTSQGQVRMRLFGQRCQKK [C24K], the protein stability index was 3.24. Consider TYWEHWTSQGQVRMRLFGQRCQKL [C24L], for which the protein stability index turned out to be 2.2.

On to TYWEHWTSQGQVRMRLFGQRCTKC [Q22T], for which the protein stability index came to 1.94.

With TYWEHWTSQGQVRMRLFGQRCWKC [Q22W], the protein stability index turned out to be 4.47.

As for TYWEHWTSQGQVRMRLFGQRCVKC [Q22V], the protein stability index is 1.36.
